Results on 4 molecules are retold here after patent EP4786492A1.

Assay [1] addresses human DLL3 endogenously expressed on SHP77 and NCI-H82 cells (human) (UniProt Q9NYJ7). The assay can be described thus: FACS SHP77 cells, 4 nM.
The target is the same in assay [2]. In words: FACS SHP77 cells, 20 nM.
The target is the same in assay [3]. The assay can be described thus: FACS SHP77 cells, 0.8 nM.
Assay [4] has the same target. In words: FACS SHP77 cells, 100 nM.
For assay [5] the target is unchanged. The assay can be described thus: FACS SHP77 cells, 0.16 nM.
Assay [6] has the same target. In words: FACS SHP77 cells, 0.032 nM.
Assay [7] has the same target. In words: FACS SHP77 cells, 0.0064 nM.
For assay [8] the target is unchanged. In words: FACS SHP77 cells, 0.00128 nM.
The target in assay [9] is human delta-like ligand 3 (DLL3) on SHP77 cells (human) (UniProt Q9NYJ7). The assay can be described thus: FACS on SHP77 cells.
For assay [10], the target named is DLL3 endogenously expressed on NCI-H82 cells (UniProt Q9NYJ7). In words: FACS on NCI-H82 cells; antibody 4 nM.
Assay [11] has the same target. The assay can be described thus: FACS on NCI-H82 cells; antibody 20 nM.
The target is the same in assay [12]. In words: FACS on NCI-H82 cells; antibody 0.8 nM.
Assay [13] shares this target. In words: FACS on NCI-H82 cells; antibody 100 nM.
The target is the same in assay [14]. In words: FACS on NCI-H82 cells; antibody 0.16 nM.
In assay [15] the target is human DLL3 protein expressed on CHO-K1 recombinant cells (human DLL3 extracellular segment fused to EpCAM transmembrane and intracellular regions) (human) (UniProt Q9NYJ7). The assay can be described thus: FACS, CHO-K1 hDLL3 cells, 4 nM antibody. In general terms: A flow cytometer gives signals particle by particle.
Assay [16] concerns the target mouse DLL3 on CHO-K1-mDLL3 cells (mouse) (UniProt O88516). The assay can be described thus: FACS, CHO-K1-mDLL3 cells, 4 nM antibody.
Assay [17] concerns the target DLL3 endogenously expressed on NCI-H82 cells (UniProt Q9NYJ7). In words: FACS on NCI-H82 cells; antibody 0.032 nM.
For assay [18], the target named is human DLL3 protein expressed on CHO-K1 recombinant cells (human DLL3 extracellular segment fused to EpCAM transmembrane and intracellular regions) (human) (UniProt Q9NYJ7). In words: FACS, CHO-K1 hDLL3 cells, 20 nM antibody.
Assay [19] deals with mouse DLL3 on CHO-K1-mDLL3 cells (mouse) (UniProt O88516). The assay can be described thus: FACS, CHO-K1-mDLL3 cells, 20 nM antibody.
Assay [20] deals with DLL3 endogenously expressed on NCI-H82 cells (UniProt Q9NYJ7). In words: FACS on NCI-H82 cells; antibody 0.0064 nM.
Assay [21] concerns the target human DLL3 protein expressed on CHO-K1 recombinant cells (human DLL3 extracellular segment fused to EpCAM transmembrane and intracellular regions) (human) (UniProt Q9NYJ7). The assay can be described thus: FACS, CHO-K1 hDLL3 cells, 0.8 nM antibody.
For assay [22] the target is unchanged. In words: FACS, CHO-K1 hDLL3 cells, 100 nM antibody.
In assay [23] the target is mouse DLL3 on CHO-K1-mDLL3 cells (mouse) (UniProt O88516). The assay can be described thus: FACS, CHO-K1-mDLL3 cells, 0.8 nM antibody.
For assay [24] the target is unchanged. In words: FACS, CHO-K1-mDLL3 cells, 100 nM antibody.
Assay [25] addresses DLL3 endogenously expressed on NCI-H82 cells (UniProt Q9NYJ7). In words: FACS on NCI-H82 cells; antibody 0.00128 nM.
The target of assay [26] is human DLL3 protein expressed on CHO-K1 recombinant cells (human DLL3 extracellular segment fused to EpCAM transmembrane and intracellular regions) (human) (UniProt Q9NYJ7). In words: FACS, CHO-K1 hDLL3 cells, 0.16 nM antibody.
The target of assay [27] is mouse DLL3 on CHO-K1-mDLL3 cells (mouse) (UniProt O88516). The assay can be described thus: FACS, CHO-K1-mDLL3 cells, 0.16 nM antibody.
For assay [28], the target named is human DLL3 protein expressed on CHO-K1 recombinant cells (human DLL3 extracellular segment fused to EpCAM transmembrane and intracellular regions) (human) (UniProt Q9NYJ7). In words: FACS, CHO-K1 hDLL3 cells, 0.032 nM antibody.
Assay [29] deals with monkey DLL3 on CHO-K1-cyno DLL3 cells (cynomolgus monkey). The assay can be described thus: FACS, CHO-K1-cyno DLL3 cells, 4 nM antibody.
Assay [30] concerns the target mouse DLL3 on CHO-K1-mDLL3 cells (mouse) (UniProt O88516). In words: FACS, CHO-K1-mDLL3 cells, 0.032 nM antibody.
Assay [31] has as its target human DLL3 protein expressed on CHO-K1 recombinant cells (human DLL3 extracellular segment fused to EpCAM transmembrane and intracellular regions) (human) (UniProt Q9NYJ7). The assay can be described thus: FACS, CHO-K1 hDLL3 cells, 0.0064 nM antibody.
The target of assay [32] is monkey DLL3 on CHO-K1-cyno DLL3 cells (cynomolgus monkey). In words: FACS, CHO-K1-cyno DLL3 cells, 20 nM antibody.
The target in assay [33] is mouse DLL3 on CHO-K1-mDLL3 cells (mouse) (UniProt O88516). The assay can be described thus: FACS, CHO-K1-mDLL3 cells, 0.0064 nM antibody.
Assay [34] has as its target human DLL3 protein expressed on CHO-K1 recombinant cells (human DLL3 extracellular segment fused to EpCAM transmembrane and intracellular regions) (human) (UniProt Q9NYJ7). In words: FACS, CHO-K1 hDLL3 cells, 0.00128 nM antibody.
In assay [35] the target is monkey DLL3 on CHO-K1-cyno DLL3 cells (cynomolgus monkey). In words: FACS, CHO-K1-cyno DLL3 cells, 0.8 nM antibody.
For assay [36] the target is unchanged. In words: FACS, CHO-K1-cyno DLL3 cells, 100 nM antibody.
Assay [37] concerns the target mouse DLL3 on CHO-K1-mDLL3 cells (mouse) (UniProt O88516). In words: FACS, CHO-K1-mDLL3 cells, 0.00128 nM antibody.
Assay [38] concerns the target monkey DLL3 on CHO-K1-cyno DLL3 cells (cynomolgus monkey). In words: FACS, CHO-K1-cyno DLL3 cells, 0.16 nM antibody.
Assay [39] has the same target. In words: FACS, CHO-K1-cyno DLL3 cells, 0.032 nM antibody.
The target is the same in assay [40]. In words: FACS, CHO-K1-cyno DLL3 cells, 0.0064 nM antibody.
Assay [41] shares this target. In words: FACS, CHO-K1-cyno DLL3 cells, 0.00128 nM antibody.
Assay [42] deals with human DLL1 protein (Acro, Cat. No. DL1-H52H8) (human) (UniProt O00548). The assay can be described thus: ELISA, coated hDLL1; maximum over 0.1, 1, 10, 100 nM antibody. For orientation: An ELISA detects its analyte on a solid surface through an enzyme-linked reagent.
The target of assay [43] is human DLL4 protein (Acro, Cat. No. DL4-H5227) (human) (UniProt Q9NR61). The assay can be described thus: ELISA, coated hDLL4; maximum over 0.1, 1, 10, 100 nM antibody.
The target of assay [44] is human DLL3 protein (extracellular segment, His tag) (human) (UniProt Q9NYJ7). In words: SPR (Biacore 8K), antibody captured on Protein A chip, DLL3 antigen in solution, 1:1 Langmuir fit. Background: Surface plasmon resonance follows binding to a sensor surface in real time, without labels.
human DLL3 protein (extracellular segment, His tag) (human), sequence (Q9NYJ7 27-492): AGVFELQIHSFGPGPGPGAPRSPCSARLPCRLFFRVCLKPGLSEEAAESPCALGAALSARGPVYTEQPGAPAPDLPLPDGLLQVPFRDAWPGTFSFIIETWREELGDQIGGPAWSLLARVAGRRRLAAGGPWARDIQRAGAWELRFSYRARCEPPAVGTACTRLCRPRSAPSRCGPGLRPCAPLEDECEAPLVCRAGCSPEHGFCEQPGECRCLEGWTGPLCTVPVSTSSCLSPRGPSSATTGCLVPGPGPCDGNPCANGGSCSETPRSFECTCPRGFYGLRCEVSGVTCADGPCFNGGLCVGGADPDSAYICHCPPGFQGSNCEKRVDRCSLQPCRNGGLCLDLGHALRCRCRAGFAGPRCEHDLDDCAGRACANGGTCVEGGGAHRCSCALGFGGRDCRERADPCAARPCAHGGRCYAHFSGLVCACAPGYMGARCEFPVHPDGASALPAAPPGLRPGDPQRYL

mouse DLL3 on CHO-K1-mDLL3 cells (mouse), sequence (O88516 other isoform, or with tags, fused parts or gaps limits assumed): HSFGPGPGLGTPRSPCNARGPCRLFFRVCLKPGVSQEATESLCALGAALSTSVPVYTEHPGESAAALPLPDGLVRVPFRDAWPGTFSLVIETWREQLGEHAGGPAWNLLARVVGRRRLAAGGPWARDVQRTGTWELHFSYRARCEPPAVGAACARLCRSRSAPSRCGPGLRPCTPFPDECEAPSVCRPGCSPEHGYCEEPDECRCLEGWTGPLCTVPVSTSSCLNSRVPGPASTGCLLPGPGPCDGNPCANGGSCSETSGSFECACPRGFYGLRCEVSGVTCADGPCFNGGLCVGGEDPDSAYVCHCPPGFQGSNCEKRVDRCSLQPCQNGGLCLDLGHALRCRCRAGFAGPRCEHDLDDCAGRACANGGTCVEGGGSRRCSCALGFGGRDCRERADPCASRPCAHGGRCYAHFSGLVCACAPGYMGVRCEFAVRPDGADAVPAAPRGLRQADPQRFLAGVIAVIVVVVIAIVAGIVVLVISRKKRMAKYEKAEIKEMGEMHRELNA
human DLL3 endogenously expressed on SHP77 and NCI-H82 cells (human), sequence (Q9NYJ7 27-618): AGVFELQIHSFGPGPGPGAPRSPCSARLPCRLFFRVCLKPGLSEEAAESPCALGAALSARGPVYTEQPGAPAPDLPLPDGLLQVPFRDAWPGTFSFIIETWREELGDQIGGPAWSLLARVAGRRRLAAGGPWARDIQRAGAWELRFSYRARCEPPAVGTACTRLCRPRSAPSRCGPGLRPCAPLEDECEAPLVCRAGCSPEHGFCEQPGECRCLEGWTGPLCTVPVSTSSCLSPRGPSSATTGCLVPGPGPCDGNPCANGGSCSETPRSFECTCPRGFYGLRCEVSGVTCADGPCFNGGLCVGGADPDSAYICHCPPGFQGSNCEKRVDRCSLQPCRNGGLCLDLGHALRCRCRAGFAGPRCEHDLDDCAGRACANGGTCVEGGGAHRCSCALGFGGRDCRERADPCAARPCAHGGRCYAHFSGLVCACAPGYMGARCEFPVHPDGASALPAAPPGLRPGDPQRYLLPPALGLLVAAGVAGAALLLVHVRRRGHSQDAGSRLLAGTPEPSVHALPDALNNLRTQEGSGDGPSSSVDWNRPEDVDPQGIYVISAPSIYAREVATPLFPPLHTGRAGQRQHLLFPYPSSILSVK
DLL3 endogenously expressed on NCI-H82 cells, sequence (Q9NYJ7 27-618): as above
human delta-like ligand 3 (DLL3) on SHP77 cells (human), sequence (Q9NYJ7 27-618, stated change not applied): as the sequence (Q9NYJ7 27-618) above
monkey DLL3 on CHO-K1-cyno DLL3 cells (cynomolgus monkey), sequence (chain, as listed by the source limits assumed): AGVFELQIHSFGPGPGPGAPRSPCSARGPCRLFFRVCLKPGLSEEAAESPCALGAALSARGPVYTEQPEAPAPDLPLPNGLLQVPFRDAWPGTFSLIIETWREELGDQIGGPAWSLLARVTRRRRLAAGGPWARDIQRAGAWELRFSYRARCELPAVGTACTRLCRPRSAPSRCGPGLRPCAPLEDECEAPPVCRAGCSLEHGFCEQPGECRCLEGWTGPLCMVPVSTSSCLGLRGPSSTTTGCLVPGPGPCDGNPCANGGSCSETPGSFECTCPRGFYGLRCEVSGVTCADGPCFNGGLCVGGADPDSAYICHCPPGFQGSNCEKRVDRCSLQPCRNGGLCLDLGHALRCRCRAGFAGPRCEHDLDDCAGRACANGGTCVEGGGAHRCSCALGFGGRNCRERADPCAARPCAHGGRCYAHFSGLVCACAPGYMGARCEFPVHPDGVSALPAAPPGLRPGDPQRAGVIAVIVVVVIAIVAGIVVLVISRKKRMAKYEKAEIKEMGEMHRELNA
human DLL3 protein expressed on CHO-K1 recombinant cells (human DLL3 extracellular segment fused to EpCAM transmembrane and intracellular regions) (human), sequence (Q9NYJ7 other isoform, or with tags, fused parts or gaps limits assumed): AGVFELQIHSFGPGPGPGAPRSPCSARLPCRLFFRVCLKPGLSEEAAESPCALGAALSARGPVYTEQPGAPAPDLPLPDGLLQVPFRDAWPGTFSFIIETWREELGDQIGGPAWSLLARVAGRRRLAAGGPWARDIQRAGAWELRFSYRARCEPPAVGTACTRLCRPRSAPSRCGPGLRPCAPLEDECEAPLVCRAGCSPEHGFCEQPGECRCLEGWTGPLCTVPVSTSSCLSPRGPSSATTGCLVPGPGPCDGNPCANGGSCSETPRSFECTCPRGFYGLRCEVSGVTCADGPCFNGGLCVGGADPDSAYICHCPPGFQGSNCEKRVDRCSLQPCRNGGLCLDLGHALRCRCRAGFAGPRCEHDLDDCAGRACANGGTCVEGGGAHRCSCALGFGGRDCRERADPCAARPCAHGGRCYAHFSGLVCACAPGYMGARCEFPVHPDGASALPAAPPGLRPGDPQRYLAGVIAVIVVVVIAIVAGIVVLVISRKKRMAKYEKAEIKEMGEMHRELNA
human DLL4 protein (Acro, Cat. No. DL4-H5227) (human), sequence (Q9NR61 27-524 limits assumed): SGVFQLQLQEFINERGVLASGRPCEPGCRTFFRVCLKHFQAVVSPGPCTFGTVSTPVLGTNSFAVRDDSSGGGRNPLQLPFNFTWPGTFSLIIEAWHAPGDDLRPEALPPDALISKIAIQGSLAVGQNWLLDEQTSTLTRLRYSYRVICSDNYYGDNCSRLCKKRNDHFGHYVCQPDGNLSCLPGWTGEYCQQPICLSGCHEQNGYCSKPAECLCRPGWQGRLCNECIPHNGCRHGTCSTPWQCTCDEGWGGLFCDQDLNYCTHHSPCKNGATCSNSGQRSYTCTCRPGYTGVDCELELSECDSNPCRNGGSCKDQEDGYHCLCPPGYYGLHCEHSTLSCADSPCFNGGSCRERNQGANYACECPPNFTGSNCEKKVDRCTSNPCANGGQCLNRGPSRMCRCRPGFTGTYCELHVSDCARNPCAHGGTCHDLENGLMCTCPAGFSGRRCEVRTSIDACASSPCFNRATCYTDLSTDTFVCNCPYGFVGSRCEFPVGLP
human DLL1 protein (Acro, Cat. No. DL1-H52H8) (human), sequence (O00548 18-540 limits assumed): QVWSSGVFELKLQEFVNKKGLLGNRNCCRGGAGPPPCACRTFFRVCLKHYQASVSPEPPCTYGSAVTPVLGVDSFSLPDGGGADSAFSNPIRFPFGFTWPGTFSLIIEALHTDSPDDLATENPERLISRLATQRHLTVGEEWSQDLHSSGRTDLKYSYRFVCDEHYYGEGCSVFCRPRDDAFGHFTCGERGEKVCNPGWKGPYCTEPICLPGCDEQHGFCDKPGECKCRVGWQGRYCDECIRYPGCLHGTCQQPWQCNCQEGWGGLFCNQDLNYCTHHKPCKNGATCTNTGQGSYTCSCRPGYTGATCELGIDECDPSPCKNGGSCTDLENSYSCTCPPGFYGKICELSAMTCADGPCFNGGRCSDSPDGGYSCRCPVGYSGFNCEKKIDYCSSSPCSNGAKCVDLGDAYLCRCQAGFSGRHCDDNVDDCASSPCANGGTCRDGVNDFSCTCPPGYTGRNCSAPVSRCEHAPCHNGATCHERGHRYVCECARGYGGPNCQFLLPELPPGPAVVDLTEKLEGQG

B1: mab007 scFv-hFc (Fc fusion, not shown: small tags and cut ends; a dimerising Fc or GST)
scFv (part 1 of 2): DVQITQSPSYLAASPGETITINCRASTSISKYLAWYQERPGKTNKLLIYSGSTLQSGIPSRFRGSGSGTDFTLTISSLEPEDFAMYYCQQHHVYPYTFGGGTKLEIK
scFv (part 2 of 2): QVQLQQPGAELVRPGTSVKLSCKASGYTFTSYWMHWVKQRPGQGLEWIGVIDPSDSLANYNQEFKGKATLTVDTSSSTAYMQLSSLTSEDSAVYYCARDSTVVAPMDYWGQGTSVTVSS
For B1, the MFI in assay [1] was found to be 563 MFI; in assay [2], 634 MFI; in assay [3] it was 525 MFI; in assay [4], 521 MFI; in [5], 406 MFI; in [6], 227 MFI. In addition, the MFI is 135 MFI in assay [7] and 103 MFI in [8].

B2: mab002 scFv-hFc (Fc fusion, not shown: small tags and cut ends; a dimerising Fc or GST)
scFv (part 1 of 2): QIVLTQSPAIMSASPGEKVTMTCSARSSVSYMQWYQQKSGTSPKRWIYDTSKLASGVPARFSGSGSGTSYSLTISTMEAEDAATYYCQQWSSDPPTFGGGTKLEIK
scFv (part 2 of 2): QIQLVQSGPELKKPGETVKISCKASGYTFTNYGMNWLKQAPGKGLKWMGWINTYTGESTYADDFKGRFAFSLETSASTVYLQINNLKNEDMATYFCARMGDGYYDFTMDYWGQGTSVTVSS
Consider B2, for which the MFI in assay [1] was determined as 535 MFI; in assay [2], 548 MFI; in assay [3], 498 MFI; in [4] it was 596 MFI; in assay [5] it was 518 MFI; in [6] it was 371 MFI. Moreover, the MFI in assay [7] came out at 255 MFI; in assay [8] it was 197 MFI.

B3: Hab006VL4VH1-hFc (scFv, part only; not given: scFv linker and human IgG1 Fc, V domains shown, not shown: another chain or arm of the molecule; a dimerising Fc or GST; small tags and cut ends)
VL: DIVMTQSPDSLAVSLGERATINCRATKSISKYLAWYQQKPGQTNKLLIFSGSTLQSGVPDRFSGSGSGTDFTLTISSLQAEDVAVYYCQQHHEYPYTFGGGTKVEIK
VH: EVQLVQSGAEVKKPGASVKVSCKASGYTFTSYWMHWVRQAPGQRLEWMGVIDPSDSLANYNQEFKGRVTITVDTSASTAYMELSSLRSEDTAVYYCARDSTVVAPMDYWGQGTTVTVSS
Usually Kd stands for a measure of binding affinity in units of concentration. By koff is commonly meant the rate constant with which the complex falls apart. The kon is a measure of how fast the partners come together. In turn, B3 showed an MFI at 0.00128 nM in [9] of 215 MFI. The molecule further returned an MFI at 0.0064 nM in assay [9] of 305 MFI. In [9], the MFI at 0.032 nM came out at 554 MFI. Moreover, the MFI at 0.16 nM in assay [9] was determined as 1060 MFI. In addition, in assay [9], the MFI at 0.8 nM is 1410 MFI. In assay [9], this molecule yielded an MFI at 4 nM of 1490 MFI. The MFI at 20 nM in [9] came out at 1660 MFI. This molecule returned an MFI at 100 nM in assay [9] of 1900 MFI. Moreover, the MFI in assay [10] was 454; in assay [11] it was 504; in assay [12] it was 434; in assay [13], 596; in [14], 397; in [15], 13600 MFI. Moreover, the MFI amounted to 485 MFI in [16]; 252 in [17]; 14500 MFI in [18]; 523 MFI in [19]; 157 in assay [20]; 11300 MFI in assay [21]. Further, the MFI in [22] worked out at 15200 MFI; in assay [23], 404 MFI; in assay [24] it was 554 MFI; in [25], 123; in assay [26], 4120 MFI; in assay [27], 278 MFI. Further, the MFI in assay [28] turned out to be 1130 MFI; in assay [29], 8440 MFI; in assay [30], 165 MFI; in assay [31], 411 MFI; in assay [32], 9050 MFI; in assay [33] it was 110 MFI. Also, the MFI in [34] was 227 MFI; in assay [35], 7500 MFI; in assay [36] it was 10500 MFI; in assay [37], 98 MFI; in assay [38], 3350 MFI; in [39], 1110 MFI. The MFI in assay [40] stood at 424 MFI; in assay [41], 239 MFI. For the same molecule, the Emax of OD450 nm binding value worked out at 0.07 OD450 nm in assay [42] and 0.08 OD450 nm in assay [43]. In addition, the Kd in [44] is 0.286 nM. For the same molecule, the koff in assay [44] is 0.000119 s⁻¹. Besides, the kon in assay [44] is 415000 M⁻¹ s⁻¹.

B4: mab005 scFv-hFc (Fc fusion, not shown: small tags and cut ends; a dimerising Fc or GST)
scFv (part 1 of 2): DIVLTQSPATLSVTPGDSVSLSCRASQSVSNDLHWYQQKSHESPRLLIKYASQSISGIPSRFSGSGSGTDFTLTINSVETEDFGMYFCQQSNNWPYTFGGGTKLEMK
scFv (part 2 of 2): QVQLQQSGAELMKPGASVTLSCKATGYTLPGYWIEWVKQRPGHGLEWIGEILPGSSSANYNEKFKGKATFTADTSSNTAYMQLSSLTTEDSAIYYCASTYGTSLDYWGQGTTLTVSS
With B4, the MFI in [1] was 451 MFI; in assay [2], 486 MFI; in assay [3], 404 MFI; in assay [4], 543 MFI; in assay [5] it was 287 MFI; in [6] it was 172 MFI. The MFI in assay [7] was 125 MFI; in assay [8], 117 MFI.
